Reference: paper PMC7948479, “Allostery in the nitric oxide dioxygenase mechanism of flavohemoglobin” (The Journal of Biological Chemistry, 2020)
Read-outs that look alike come from different tables or passages of the source.

Experiments:
[1] = test system: E. coli flavoHb-NOD; assay type: biochemical, Escherichia coli; conditions: for Ki: NO competitive with O2; for K3: NO passage through gate, apparent Km(NO); for Kii(NO): NO uncompetitive inhibition; for K2: O2 displacement of LeuE11; for k'NOD app: calculated from Vmax/K3; for k'NOD: calculated from Vmax/K4; for K4: reaction of NO with Fe^3+O2^−; for KT: trigger step equilibrium constant
Source text: We have formulated a steady-state velocity equation for the catalytic cycle with the activating trigger step (KT) (Equation 1).(1) v= Vmax(a) where a=([NO]^2[O2]^2/K1K2K3KTK4)/(1+([O2]/K1)+([O2]^2/K1K2)+(([O2]^2[NO])/K1K2K3)+(([O2]^2[NO])/K1K2K3KT)+(([O2]^2[NO]^2)/K1K2K3KTK4))
(2) v= Vmax(a)(b) where b=[NO]/(K3+([NO](1+((K2/[O2])(1+([NO]/Ki(NO)))))))
In addition, we have introduced a factor and equilibrium constant Ka(O2) for rare situations in which O2 causes an additional NO-independent activation of catalysis possibly by occupying unique binding sites or cavities (Equation 5).
NOD activity was measured amperometrically in 100 mM phosphate buffer, pH 7.0, containing 0.3 mM EDTA, 100 μg/ml bovine serum albumin (BSA) (Fraction V), 100 μM NADH, 0.1 μM FAD with NO, O2, and N2 mixtures added as described ([4], [72]). NADH oxidase activity was followed spectrophotometrically at 340 nm in a 1.0-ml cuvette containing 90 mM Tris chloride buffer, pH 8.2, 100 μM NADH, 200 μM O2, 0.1 μM FAD, 100 μg/ml BSA, and 0.3 mM EDTA and incubated at 37 °C. Cytochrome b5 reductase activity was assayed at 37 °C by following the rate of absorbance increase at 555 nm in a 1.0-ml reaction buffered with 90 mM Tris chloride, pH 8.2, and containing 10 μM ferric cytochrome b5, 200 μM O2, 20 μM NADH, 0.1 μM FAD, 100 μg/ml BSA, and 0.3 mM EDTA. TMAO reductase activity was assayed by following the absorbance decrease at 340 nm in a 1.0-ml anaerobic reaction containing 12 U Aspergillus niger glucose oxidase, 5 mM glucose, 260 U catalase, 400 mM TMAO, 100 μM NADH, 0.1 μM FAD, 100 μg/ml BSA, and 0.3 mM EDTA in 90 mM Tris chloride pH 8.2 and incubated at 37 °C. Ngb reductase activity was assayed by following the absorbance increase at 424 nm in a 1.0-ml anaerobic reaction containing 12 U glucose oxidase, 5 mM glucose, 260 U catalase, 5 μM Ngb, 50 μM NADH, 0.1 μM FAD, 100 μg/ml BSA, and 0.3 mM EDTA in 90 mM Tris chloride buffer, pH 8.2, and incubated at 37 °C. Methyl viologen reductase activity was assayed by following the formation of the blue cation radical at 603 nm and by applying an extinction coefficient of 13,300 M^−1 cm^−1 in a 1.0-ml anaerobic reaction buffered with 10 mM potassium phosphate, pH 7.0, and containing 12 U glucose oxidase, 5 mM glucose, 260 U catalase, 100 μM NADH, 0.1 μM FAD, 100 μg/ml BSA, 0.3 mM EDTA, and 200 mM sodium chloride and incubated at 37 °C. NO reductase activity was assayed amperometrically at 37 °C in a 1.0-ml anaerobic reaction containing 2 μM NO, 100 μM NADH, 0.1 μM FAD, 12 U glucose oxidase, 5 mM glucose, 260 U catalase, 100 μg/ml BSA, and 0.3 mM EDTA buffered with 10 mM potassium phosphate pH 7.0. CO effects were tested at a final concentration of 50 μM as diluted from a 1 mM stock in water. All activities are reported relative to the heme content of flavoHb.
Rate constants were estimated from the model kinetic equation using Python programming with successive approximations to optimize fits with varying NO and O2 concentrations. Vmax, K1, K2, KT, and Kii(NO) values were treated as independent variables for a given flavoHb while allowing K3, K4, and Ki(NO) to vary over limited ranges with varying O2 concentration. Kii(NO) was estimated from NO inhibition at saturating O2 concentrations.

[2] = NADH oxidase activity; assay type: biochemical; conditions: 37 °C; relative to heme content
Method: (§1) NADH oxidase activity was followed spectrophotometrically at 340 nm in a 1.0-ml cuvette containing 90 mM Tris chloride buffer, pH 8.2, 100 μM NADH, 200 μM O2, 0.1 μM FAD, 100 μg/ml BSA, and 0.3 mM EDTA and incubated at 37 °C. […] TMAO reductase activity was assayed by following the absorbance decrease at 340 nm in a 1.0-ml anaerobic reaction containing 12 U Aspergillus niger glucose oxidase, 5 mM glucose, 260 U catalase, 400 mM TMAO, 100 μM NADH, 0.1 μM FAD, 100 μg/ml BSA, and 0.3 mM EDTA in 90 mM Tris chloride pH 8.2 and incubated at 37 °C. […] Methyl viologen reductase activity was assayed by following the formation of the blue cation radical at 603 nm and by applying an extinction coefficient of 13,300 M^−1 cm^−1 in a 1.0-ml anaerobic reaction buffered with 10 mM potassium phosphate, pH 7.0, and containing 12 U glucose oxidase, 5 mM glucose, 260 U catalase, 100 μM NADH, 0.1 μM FAD, 100 μg/ml BSA, 0.3 mM EDTA, and 200 mM sodium chloride and incubated at 37 °C. NO reductase activity was assayed amperometrically at 37 °C in a 1.0-ml anaerobic reaction containing 2 μM NO, 100 μM NADH, 0.1 μM FAD, 12 U glucose oxidase, 5 mM glucose, 260 U catalase, 100 μg/ml BSA, and 0.3 mM EDTA buffered with 10 mM potassium phosphate pH 7.0. CO effects were tested at a final concentration of 50 μM as diluted from a 1 mM stock in water. […]

[3] = NO reductase activity (anaerobic); assay type: biochemical
Method: as §1

[4] = test system: Ngb; experiment: Ngb reductase activity; assay type: biochemical, murine; conditions: 37 °C; 5 μM Ngb; anaerobic
Source text: Reagents were purchased from Sigma-Aldrich Chemical Co (St Louis, MO, USA) unless otherwise stated. DNA primers were synthesized at the University of Cincinnati Medical Center DNA facility. Praxair (Bethlehem, PA, USA) was the supplier of 99.993% O2, 99.999% CO, and 99.98% N2. Bovine liver catalase (260,000 U/ml) was obtained from Roche Applied Science. Recombinant rat cytochrome b5 (soluble form) and murine Ngb were expressed in E. coli and purified essentially as described ([10], [70]). NADH purity (≥95%) was assessed by the ratio of the 340 to 260 nm absorbance with a value of 0.437 equal to 100% reduced.

[5] = TMAO reductase activity; assay type: biochemical; conditions: 37 °C; 400 mM TMAO; anaerobic
Method: as §1

[6] = parameters: method as in PMID 10777548, PMID 10922365; conditions: cited from earlier work
[7] = parameters: method as in PMID 7821669; conditions: cited from earlier work
[8] = test system: E. coli growth; parameters: method as in PMID 11751865; conditions: atmosphere containing 5 μM O2 and 0.5 μM NO; cited from earlier work
[9] = test system: anaerobic E. coli; parameters: method as in PMID 11751864; conditions: cited from earlier work
[10] = biological target: E. coli flavoHb (Escherichia coli, UniProt P24232); conditions: cited from earlier work
[11] = test system: flavoHb heme (Fe^2+ / Fe^3+); conditions: cited from earlier work

B1: WT: wild-type E. coli flavohemoglobin (flavoHb), an NO dioxygenase (NOD) (protein, UniProt P24232 1-396, looked up)
Flavohemoprotein: MLDAQTIATVKATIPLLVETGPKLTAHFYDRMFTHNPELKEIFNMSNQRNGDQREALFNAIAAYASNIENLPALLPAVEKIAQKHTSFQIKPEQYNIVGEHLLATLDEMFSPGQEVLDAWGKAYGVLANVFINREAEIYNENASKAGGWEGTRDFRIVAKTPRSALITSFELEPVDGGAVAEYRPGQYLGVWLKPEGFPHQEIRQYSLTRKPDGKGYRIAVKREEGGQVSNWLHNHANVGDVVKLVAPAGDFFMAVADDTPVTLISAGVGQTPMLAMLDTLAKAGHTAQVNWFHAAENGDVHAFADEVKELGQSLPRFTAHTWYRQPSEADRAKGQFDSEGLMDLSKLEGAFSDPTMQFYLCGPVGFMQFTAKQLVDLGVKQENIHYECFGPHKVL
Vmax ([1]; 20 °C): 160 NO heme^−1 s^−1
Ki ([1]; 20 °C): 300 to 1000 nM
K3 ([1]; 20 °C): 0.1–0.4 Micromolar
Kii(NO) ([1]; 20 °C): 10 (10) Micromolar
K2 ([1]; 20 °C): 20 Micromolar
k'NOD app ([1]; 20 °C): 0.4–1.6 10^9 M^−1 s^−1
k'NOD ([1]; 20 °C): 0.5–2.7 10^9 M^−1 s^−1
K4 ([1]; 20 °C): 0.06–0.3 Micromolar
KT ([1]; 20 °C): 0.1 (0.1)
Vmax ([1]; 37 °C): 580 NO heme^−1 s^−1
Ki ([1]; 37 °C): 700 to 1200 nM
K3 ([1]; 37 °C): 0.25 Micromolar
Kii(NO) ([1]; 37 °C): 10 (10) Micromolar
K2 ([1]; 37 °C): 120 Micromolar
k'NOD app ([1]; 37 °C): 2.3 10^9 M^−1 s^−1
k'NOD ([1]; 37 °C): 9.7–19 10^9 M^−1 s^−1
K4 ([1]; 37 °C): 0.03–0.06 Micromolar
KT ([1]; 37 °C): 0.1 (0.1)
overall activation energy (Ea) ([1]; Arrhenius equation for Vmax at 37 and 20 °C): ~13.7 kcal/mol
NADH oxidase activity [2]: 0.27 s⁻¹
NO reductase activity ([3]; 37 °C, 2 μM NO, anaerobic): 0.19 s⁻¹
time for 90% reversal in the steady state ([3]; with NO elimination via reduction): 23 s
Ngb reductase activity [4]: 0.20 s⁻¹
TMAO reductase activity [5]: 0.21 s⁻¹
NO elimination via reduction [6]: ≤ 0.1 s⁻¹
Vmax for Fe^2+NO reduction [6]: 0.1 s⁻¹
FAD/FADH2 potential (E^0) [7]: < −0.15 V
nominal heme mid-point potential [7]: −0.125 V
protection of E. coli growth [8]: fully protects
NO metabolic activity [9]: insignificant NO metabolic activity
kET previously reported [10]: 136 s⁻¹
k ([11]; Fe^2+ NO dissociation): 0.0002 (4) s^−1
k ([11]; Fe^3+ NO dissociation): ∼4000 (4) s^−1
